Experimental findings from patent US20160347840A1 (Janssen / Centocor, published 2016) are described below.

For test [1], the target named is T1, cell-surface CD3E on primary human T cells (human, UniProt P07766 23-207).
T1 construct: whole, on cells; On the cells CD3E stands in the CD3/T cell receptor complex; also called human CD3
Briefly: flow cytometry on primary human T cells, anti-human IgG Alexa Fluor 647 secondary. Here is the method: (§1) The resulting panel of anti-CD3 antibodies was tested for binding against cell-surface CD3E on primary human T cells. To do this, binding of antibodies from expression supernatants was visualized using a polyclonal anti-human secondary antibody and analyzed by flow cytometry. Briefly, binding of anti-CD3 antibodies to cell-surface CD3E was assessed by flow cytometry using primary Human T lymphocytes purified by negative selection (Biological Specialty, Colmar, USA). Expression supernatants or purified antibodies were normalized to 10 μg/ml in media or FACS buffer (BD BioSciences), respectively. 2×10⁵ cells were aliquoted into wells of a 96 well round-bottomed plate (CoStar) for labeling. Antibodies in expression supernatant were added to cells and incubated for 45 min at 4° C. Following centrifugation at 1300 rpm for 3 min and removal of supernatant, 50 μL of anti-human IgG (H+L) Alexa Fluor 647 secondary antibody (Life technologies Inc.) was incubated with the cells at a final concentration of 10 μg/mL for 30 min at 4° C. away from direct light. Following washing and resuspension in 30 μL FACs buffer (BD BioSciences). Sample collection was performed on an Intellicyt HTFC system using ForeCyt software. Viable single cells were gated prior to analysis of binding using the green or red fixable live/dead dyes (Life Technologies Inc.) and forward/side scatter area and height parameters, respectively. Graphs were generated in GraphPad Prism version 5 using mean fluorescence intensity values.
Two in-house phage-derived antibodies with the same Fc region as the therapeutic antibodies were used as controls: G11 (HC SEQ ID NO:176, LC SEQ ID NO:177), a non-cyno cross-reactive, agonistic antibody was used as a positive control and CD3B94 (HC-SEQ ID NO:178, LC—SEQ ID NO:179) a non-binder/non-agonistic antibody was used to assess non-specific binding. The commercial SP34 antibody was not used as a comparator in this assay since it is a mouse antibody and the use of a different secondary detection reagent would have prohibited direct comparison with the variants tested.
(Flow cytometry measures light scatter and fluorescence of single cells or particles in a stream.)

The target of test [2] is T2, cynomolgus CD3E on primary cynomolgus CD4+ T cells (cynomolgus, UniProt Q95LI5 22-198).
T2 construct: whole, on cells; On the cells CD3E stands in the CD3/T cell receptor complex
T2 sequence (Q95LI5 22-198): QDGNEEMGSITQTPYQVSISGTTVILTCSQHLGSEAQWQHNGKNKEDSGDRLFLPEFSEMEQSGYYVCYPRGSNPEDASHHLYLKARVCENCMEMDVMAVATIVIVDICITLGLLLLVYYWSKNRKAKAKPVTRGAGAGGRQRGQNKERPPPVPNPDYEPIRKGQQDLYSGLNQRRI
Briefly: flow cytometry on primary cynomolgus CD4+ T cells. Here is the method: as §1
Binding analysis of the anti-CD3 hits to primary cynomolgusCD4+ T cells was then tested in order to assess the retention of cross-reactivity. Purified CD4+ T cells from the peripheral blood of cynomolgus monkeys (Zen Bio, Triangle Research Park, USA were used). Assay protocols were similar to those described above. […] This included the strong binders CD3B150, CD3B151 and CD3B154, in which binding was reduced, and several weak binders where binding could no longer be detected over background.

In test [3] the target is T3, chimpanzee PSMA extracellular domain (PSMW8), 6His and Avi tag (chimpanzee, UniProt Q04609 44-750 (human entry), biotinylated in bead-based selections and the ELISA screen).
T3 construct: Cloned along with a 6His and Avi tag; Buffer with ZnCl2 to stabilise PSMA dimerisation; also called pan 229
T3 chain: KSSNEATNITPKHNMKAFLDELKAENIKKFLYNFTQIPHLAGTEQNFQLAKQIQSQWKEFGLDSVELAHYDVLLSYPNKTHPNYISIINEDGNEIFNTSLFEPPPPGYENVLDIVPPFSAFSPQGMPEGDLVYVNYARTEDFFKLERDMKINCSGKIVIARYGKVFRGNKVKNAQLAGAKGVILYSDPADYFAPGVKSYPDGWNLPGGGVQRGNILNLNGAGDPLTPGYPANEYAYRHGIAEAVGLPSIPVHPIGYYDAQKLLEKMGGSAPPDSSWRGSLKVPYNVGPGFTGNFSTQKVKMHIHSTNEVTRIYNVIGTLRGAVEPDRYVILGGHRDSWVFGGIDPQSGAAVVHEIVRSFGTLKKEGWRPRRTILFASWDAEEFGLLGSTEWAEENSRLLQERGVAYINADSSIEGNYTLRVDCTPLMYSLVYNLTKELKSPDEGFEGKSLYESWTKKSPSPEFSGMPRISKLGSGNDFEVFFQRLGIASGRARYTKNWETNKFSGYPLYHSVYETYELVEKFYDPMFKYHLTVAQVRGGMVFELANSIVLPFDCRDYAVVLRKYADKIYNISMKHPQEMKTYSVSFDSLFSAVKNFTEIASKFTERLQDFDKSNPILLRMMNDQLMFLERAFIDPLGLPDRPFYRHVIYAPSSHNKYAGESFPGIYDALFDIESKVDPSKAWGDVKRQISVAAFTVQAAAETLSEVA
The experiment in a line: hit from CIS-display panning and ELISA screen on PSMA of this species (column Antigen species). (In an ELISA, binding on a coated surface is turned into a signal by an enzyme label.)

The target of test [4] is T4, human PSMA on tumor cells (LNCaP, MDA-PCA-2B, VCAP, 22Rv1) (human, UniProt Q04609 1-750). The experiment in a line: cell-based or functional assay.
T4 sequence (Q04609 whole entry): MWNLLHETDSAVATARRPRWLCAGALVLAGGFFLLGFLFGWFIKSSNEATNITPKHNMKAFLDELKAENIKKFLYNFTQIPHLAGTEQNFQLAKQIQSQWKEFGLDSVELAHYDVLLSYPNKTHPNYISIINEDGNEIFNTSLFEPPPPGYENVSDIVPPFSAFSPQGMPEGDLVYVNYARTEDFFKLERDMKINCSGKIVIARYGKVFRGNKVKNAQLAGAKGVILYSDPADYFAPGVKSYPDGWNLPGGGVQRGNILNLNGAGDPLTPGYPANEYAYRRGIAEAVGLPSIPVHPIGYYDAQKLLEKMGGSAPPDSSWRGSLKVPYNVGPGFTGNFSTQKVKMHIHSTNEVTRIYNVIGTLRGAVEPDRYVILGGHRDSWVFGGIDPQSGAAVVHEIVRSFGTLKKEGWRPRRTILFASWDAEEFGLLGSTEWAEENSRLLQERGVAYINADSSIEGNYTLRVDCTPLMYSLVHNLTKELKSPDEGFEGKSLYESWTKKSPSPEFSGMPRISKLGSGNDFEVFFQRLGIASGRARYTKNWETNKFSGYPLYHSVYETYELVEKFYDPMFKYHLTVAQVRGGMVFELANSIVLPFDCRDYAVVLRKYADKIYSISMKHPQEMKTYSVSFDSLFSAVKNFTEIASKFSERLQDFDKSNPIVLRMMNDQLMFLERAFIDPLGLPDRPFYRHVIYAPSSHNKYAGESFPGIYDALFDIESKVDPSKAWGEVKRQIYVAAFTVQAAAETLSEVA
Test [5] deals with T4, human PSMA on tumor cells (LNCaP, …). Briefly: cell-based or functional assay. This is another data set of the same source.
Test [6] deals with T5, isolated cynomolgus PSMA (cynoPSMA) extracellular domain, Fc removed (cynomolgus, UniProt Q04609 44-750 (human entry), N-linked glycans seen at Asn-76, -121, -140, -195, -459, -476, -613 and -638 (numbering of SEQ ID NO: 141)).
T5 construct: Expressed in GnTI- cells as a C-terminal fusion to huIgG1 Fc; the ECD starts at residue 44 of that entry; the structure includes residues 57-750; also called cynomolgous PSMA dimer
T5 chain: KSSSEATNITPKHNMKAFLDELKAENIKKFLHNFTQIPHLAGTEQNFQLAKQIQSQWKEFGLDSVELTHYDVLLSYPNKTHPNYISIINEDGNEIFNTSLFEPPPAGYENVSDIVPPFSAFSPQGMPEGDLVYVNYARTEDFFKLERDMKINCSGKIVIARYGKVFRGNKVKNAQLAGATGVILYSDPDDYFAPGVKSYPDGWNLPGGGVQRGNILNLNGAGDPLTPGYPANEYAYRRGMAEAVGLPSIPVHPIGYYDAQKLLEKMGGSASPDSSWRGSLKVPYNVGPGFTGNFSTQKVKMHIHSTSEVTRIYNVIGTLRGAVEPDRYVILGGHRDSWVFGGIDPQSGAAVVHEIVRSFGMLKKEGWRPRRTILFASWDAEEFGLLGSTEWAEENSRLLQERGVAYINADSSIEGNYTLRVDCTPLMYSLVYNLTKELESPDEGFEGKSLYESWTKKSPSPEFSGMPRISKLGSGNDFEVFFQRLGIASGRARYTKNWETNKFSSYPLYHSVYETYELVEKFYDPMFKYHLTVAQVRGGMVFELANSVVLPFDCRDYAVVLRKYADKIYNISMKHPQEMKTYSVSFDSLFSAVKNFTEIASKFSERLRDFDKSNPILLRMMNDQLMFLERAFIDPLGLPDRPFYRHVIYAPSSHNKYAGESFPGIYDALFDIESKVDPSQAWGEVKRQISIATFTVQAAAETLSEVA
Briefly: X-ray crystal structure of the complex. The protocol: The H10 FN3 Domain/cynoPSMA complex was prepared by mixing cynoPSMA with H10 FN3 domain at a molar ratio of 1:3 (excess FN3 domain) while dialyzing for 48 h at 4° C. against 20 mM Hepes pH 7.0, 0.5 mM ZnCl₂. The complex was then eluted from a monoS column with a gradient of 48-68 mM NaCl, 20 mM Hepes pH 7.5, 10% glycerol and concentrated to 3.4 mg/mL. Crystals suitable for X-diffraction were obtained from 25% PEG 3 kDa, 0.2 M NH₄Cl, 0.1 M Na Acetate pH 4.5 using the sitting drop vapor-diffusion method at 20° C.
For X-ray data collection, the crystal was soaked for a few seconds in a cryo-protectant solution containing mother liquor supplemented with 20% glycerol, and then frozen in liquid nitrogen. X-ray diffraction data were collected with a Dectris Pilatus 6M Pixel Array detector at the beamline 17-ID of the Advanced Photon Source (APS) at Argonne National Laboratory. Diffraction data were processed with the program HKL2000 (Otwinowski & Minor, 1997).

Test [7] has as its target T2, cynomolgus CD3E on primary cynomolgus …. The experiment in a line: stated for the flow cytometry assay on primary cynomolgus CD4+ T cells.
Test [8] addresses T1, cell-surface CD3E on primary human T …. Briefly: flow cytometry on primary human T cells, positive control. Here is the method: as §1, with “Viable single cells were gated prior to analysis of binding using the green or red fixable live/dead dyes (Life Technologies Inc.) and forward/side scatter area and height parameters, respectively.” left out, “values. […]” for “values.”

T1 sequence (P07766 23-207): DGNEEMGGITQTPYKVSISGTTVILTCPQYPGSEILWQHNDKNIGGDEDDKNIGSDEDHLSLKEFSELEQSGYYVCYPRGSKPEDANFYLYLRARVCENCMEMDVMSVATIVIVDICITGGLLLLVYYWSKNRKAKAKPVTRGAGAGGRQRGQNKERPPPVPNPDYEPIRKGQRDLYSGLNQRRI

B1: CD3B154 (antibody, human IgG1, V domains shown)
VH: EVQLLESGGGLVQPGGSLRLSCAASGFTFNTYAMNWVRQAPGKGLEWVARIRSKYNNYATYYADSVKGRFTISRDNSKNTLYLQMNSLRAEDTAVYYCVKHGNFGNSYVSWFAYWGQGTLVTVSS
VL: QTVVTQEPSLTVSPGGTVTLTCRSSTGAVTTSNYANWVQQKPGQAPRGLIGGTNKRAPGTPARFSGSLLGGKAALTLSGVQPEDEAEYYCALWYSNLWVFGGGTKLTVL
notes: Humanized SP34 variant; human IgG1 constant region with L234A, L235A, F405L; human lambda constant region; also called CDB154
Consider B1, for which the binding result in test [1] and in test [2] was “binds” in each case.

B2: CD3B150 (antibody, human IgG1, V domains shown)
VH: EVQLLESGGGLVQPGGSLRLSCAASGFTFNTYAMNWVRQAPGKGLEWVARIRSKYNNYATYYADSVKGRFTISRDNSKNTLYLQMNSLRAEDTAVYYCAKHGNFGNSYVSWFAYWGQGTLVTVSS
VL: QTVVTQEPSLTVSPGGTVTLTCRSSTGAVTTSNYANWVQQKPGQAPRGLIGGTNKRAPGTPARFSGSLLGGKAALTLSGVQPEDEAEYYCALWYSNLWVFGGGTKLTVL
notes: Humanized SP34 variant; human IgG1 constant region with L234A, L235A, F405L; human lambda constant region; also called CDB150
As for B2, the binding result in test [1] and in test [2] was “binds” each time.

B3: CD3B151 (antibody, human IgG1, V domains shown)
VH: EVQLLESGGGLVQPGGSLRLSCAASGFTFNTYAMNWVRQAPGKGLEWVARIRSKYNNYATYYADSVKGRFTISRDNSKNTLYLQMNSLRAEDTAVYYCVKHGNFGNSYVSWFAYWGQGTLVTVSS
VL: QAVVTQEPSLTVSPGGTVTLTCRSSTGAVTTSNYANWVQQKPGQAPRGLIGGTNKRAPGTPARFSGSLLGGKAALTLSGAQPEDEAEYYCALWYSNLWVFGGGTKLTVL
notes: Humanized SP34 variant; human IgG1 constant region with L234A, L235A, F405L; human lambda constant region; also called CDB151
As for B3, the binding result in test [1] and in test [2] was “binds” each time.

B4: P233FR9_H10 (designed binder)
chain: LPAPKNLVVSRVTEDSARLSWTAPDAAFDSFAIGYWEWDDDGEAIVLTVPGSERSYDLTGLKPGTEYPVYIAGVKGGQWSFPLSAIFTT
notes: also called H10 FN3 domain; P233FR9_10; not shown: C-terminal poly-histidine tag
B4: the binding result in test [3] is “binds”. Further, in test [4], the “LNCaP cells IC50 (nM), cytotoxicity of FN3 domain-drug conjugate” value turned out to be 0.5 nM; the “MDA-PCA-2B cells IC50 (nM), cytotoxicity of FN3 domain-drug conjugate” value worked out at 5.8 nM; the “VCAP cells IC50 (nM), cytotoxicity of FN3 domain-drug conjugate” value was determined as 25.9 nM. Besides, in test [5], the “LNCaP IC50 (nM), cytotoxicity of the FN3 domain-vcMMAF conjugate (CellTiter-Glo)” value was 0.4 nM. Also, the binding result in test [6] is listed as “binds”.

B5: G11 (antibody, V domains shown)
VH: EVQLLESGGGLVQPGGSLRLSCAASGFTFSSYGMSWVRQAPGKGLEWVSGINGGGGSKYYADSVKGRFTISRDNSKNTLYLQMNSLRAEDTAVYYCAKTSAQRFDYWGQGTLVTVSS
VL: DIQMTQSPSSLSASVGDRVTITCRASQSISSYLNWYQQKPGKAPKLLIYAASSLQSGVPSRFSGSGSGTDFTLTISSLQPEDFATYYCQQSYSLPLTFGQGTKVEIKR
notes: In-house phage-derived anti-CD3 antibody; non-cyno cross-reactive, agonistic; positive control; also called G11 mAb
B5: the binding result in test [7] is reported as “no binding”; in test [8] it was “binds”.
